The values below are quoted from earlier work in publication PMC12390062.

For orientation: Kd means a measure of binding affinity in units of concentration.

The target in series [1] is nicotinic acetylcholine receptor α7 (Gallus gallus) (UniProt P22770).
The target in series [2] is nicotinic acetylcholine receptor α-γ interface α-γ interface (Mus musculus) (UniProt P04756).
Series [3] has as its target nicotinic acetylcholine receptor α-δ interface α-δ interface (Mus musculus) (UniProt P04756).

“wNTX5 (Group 3b (ii) toxin) (from UniProt O42255)”: in series [1], the Kd is 90 µM.
With α-conotoxin MI (from UniProt P01521), the values for the dissociation constant Kd in series [2] and in series [3] were 20 µM and 0.00062 µM, respectively.
